Biological target: T1, 6× His-tagged SMAD4 (UniProt Q13485 1-552)
T1 construct: SMAD4; also called 6× His-SMAD4; source: purified from bacterial culture
T1 sequence (looked up): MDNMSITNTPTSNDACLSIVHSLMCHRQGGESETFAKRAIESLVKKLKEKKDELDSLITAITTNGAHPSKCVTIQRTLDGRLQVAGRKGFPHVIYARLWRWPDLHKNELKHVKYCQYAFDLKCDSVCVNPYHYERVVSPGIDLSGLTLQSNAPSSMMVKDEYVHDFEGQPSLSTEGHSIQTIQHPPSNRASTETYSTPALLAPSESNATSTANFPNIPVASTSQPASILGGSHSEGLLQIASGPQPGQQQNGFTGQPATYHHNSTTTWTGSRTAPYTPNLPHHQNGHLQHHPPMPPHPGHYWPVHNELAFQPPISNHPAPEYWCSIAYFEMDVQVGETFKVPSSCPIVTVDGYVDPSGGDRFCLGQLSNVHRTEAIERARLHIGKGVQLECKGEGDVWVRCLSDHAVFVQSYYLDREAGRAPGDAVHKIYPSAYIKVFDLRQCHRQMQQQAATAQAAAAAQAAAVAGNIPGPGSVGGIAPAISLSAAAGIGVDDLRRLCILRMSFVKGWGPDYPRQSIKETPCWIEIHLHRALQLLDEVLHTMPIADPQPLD
Experiment: pull-down; 1 µg GST-SIRT7 on Glutathione-Sepharose 4B, incubated with 6× His-SMAD4 for 2 h at 4 °C in 120 mM KCl, 20 mM Tris-HCl pH 7.9, 5 mM MgCl2, 0.2 mM EDTA, 10% glycerol, 0.2% NP-40; immunoblot
Settings: both partners purified

binding result: binds
B1: GST-SIRT7 (enzyme, UniProt Q9NRC8 1-400, looked up)
chain: MAAGGLSRSERKAAERVRRLREEQQRERLRQVSRILRKAAAERSAEEGRLLAESADLVTELQGRSRRREGLKRRQEEVCDDPEELRGKVRELASAVRNAKYLVVYTGAGISTAASIPDYRGPNGVWTLLQKGRSVSAADLSEAEPTLTHMSITRLHEQKLVQHVVSQNCDGLHLRSGLPRTAISELHGNMYIEVCTSCVPNREYVRVFDVTERTALHRHQTGRTCHKCGTQLRDTIVHFGERGTLGQPLNWEAATEAASRADTILCLGSSLKVLKKYPRLWCMTKPPSRRPKLYIVNLQWTPKDDWAALKLHGKCDDVMRLLMAELGLEIPAYSRWQDPIFSLATPLRAGEEGSHSRKSLCRSREEAPPGDRGAPLSSAPILGGWFGRGCTKRTKRKKVT
notes: SIRT7; also called purified GST-SIRT7; recombinant GST-SIRT7; source: recombinant, purified

From paper PMC5566498, “SIRT7 antagonizes TGF-β signaling and inhibits breast cancer metastasis” (Nature Communications, 2017)
